Measured values reported in paper PMC4626060 (Molecular Biology of the Cell, 2015).

T1: full-length glutathione S-transferase (GST)-Mps1 (UniProt P33981 1-857)
T1 sequence: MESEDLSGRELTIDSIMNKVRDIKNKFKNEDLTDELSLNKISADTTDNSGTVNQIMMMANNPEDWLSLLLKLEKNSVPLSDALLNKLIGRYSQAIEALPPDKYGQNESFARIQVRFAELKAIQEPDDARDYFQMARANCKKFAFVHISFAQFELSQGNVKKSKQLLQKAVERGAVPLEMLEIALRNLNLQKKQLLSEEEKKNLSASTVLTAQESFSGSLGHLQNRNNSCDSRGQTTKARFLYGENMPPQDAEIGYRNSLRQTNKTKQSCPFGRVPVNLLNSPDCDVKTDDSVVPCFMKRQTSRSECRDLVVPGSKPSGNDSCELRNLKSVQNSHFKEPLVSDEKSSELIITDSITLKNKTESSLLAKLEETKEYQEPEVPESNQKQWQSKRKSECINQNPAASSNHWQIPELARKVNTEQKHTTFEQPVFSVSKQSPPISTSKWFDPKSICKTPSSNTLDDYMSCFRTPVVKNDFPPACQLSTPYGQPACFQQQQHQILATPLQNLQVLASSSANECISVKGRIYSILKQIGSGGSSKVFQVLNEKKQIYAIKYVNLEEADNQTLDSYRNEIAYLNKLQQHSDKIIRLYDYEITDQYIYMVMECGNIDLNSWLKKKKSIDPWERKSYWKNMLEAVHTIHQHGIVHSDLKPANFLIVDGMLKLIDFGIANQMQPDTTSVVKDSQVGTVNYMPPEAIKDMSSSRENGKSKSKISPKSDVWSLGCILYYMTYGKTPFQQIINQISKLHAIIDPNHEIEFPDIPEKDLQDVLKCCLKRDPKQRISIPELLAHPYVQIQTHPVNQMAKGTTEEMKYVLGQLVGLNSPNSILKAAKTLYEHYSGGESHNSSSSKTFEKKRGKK

B1: recombinant His-Cetn2 (natural protein)
chain: MASNFKKANMASSSQRKRMSPKPELTEEQKQEIREAFDLFDADGTGTIDVKELKVAMRALGFEPKKEEIKKMISEIDKEGTGKMNFGDFLTVMTQKMSEKDTKEEILKAFKLFDDDETGKISFKNLKRVAKELGENLTDEELQEMIDEADRDGDGEVSEQEFLRIMKKTSLY
B2: recombinant His-Cetn3 (natural protein)
chain: MSLALRSELVVDKTKRKKRRELSEEQKQEIKDAFELFDTDKDEAIDYHELKVAMRALGFDVKKADVLKILKDYDREATGKITFEDFNEVVTDWILERDPHEEILKAFKLFDDDDSGKISLRNLRRVARELGENMSDEELRAMIEEFDKDGDGEINQEEFIAIMTGDI

Biological target: T1, full-length glutathione S-transferase …
Assay: pull-down

| Binder | fold binding to GST-Mps1 on coincubation with Cetn3 against Cetn2 alone [fold] | fold binding to GST-Mps1 with 5 mM MgCl2 against without [fold] |
| --- | --- | --- |
| B1 | 3.39 ± 1.96 |  |
| B2 |  | 2.59 ± 0.91 |
